Data set [1] deals with the molecule itself. Put plainly: SEC; Superose 12 10/300 GL, 50 mM Hepes pH 7.5, 0.3 M NaCl; proteins loaded at 0.9 mg/ml; standards BSA, ovalbumin, carbonic anhydrase. On the technique in general: In gel filtration, larger molecules generally elute earlier.
Data set [2] concerns the target T1, Toll-like receptor 4 (TLR4) (human, UniProt O00206 24-629).
T1 construct: Toll-like receptor 4 (TLR4) from the plasmid pEFBOS-TLR4 (Dr Kensuke Miyake); the introduction speaks of the extracellular domain of TLR4; human TLR4 (AAY82270.1) is named for the docking model; Cells were lysed with 0.3% Triton X-100, which may mean the whole receptor; Anchored to the sensor 'via the N terminus of the histidine tail'; also called biosensor-tethered TLR4
Put plainly: SPR; evanescent wave/resonant mirror optical biosensor (IAsys plus), called surface plasmon resonance by the paper; TLR4 covalently anchored (EDC/NHS) to carboxylate cuvettes, 1.3 ng/mm^2; NAMPT proteins soluble, 1 to 3 nM; PBS; 37 °C; monoexponential fit. As to conditions: both partners purified. A general note: SPR reads the build-up and loss of mass on a sensor chip optically.

The source of these data is paper PMC8892085, “Molecular insights into the interaction between human nicotinamide phosphoribosyltransferase and Toll-like receptor 4” (The Journal of Biological Chemistry, 2022).

T1 sequence (O00206 24-629): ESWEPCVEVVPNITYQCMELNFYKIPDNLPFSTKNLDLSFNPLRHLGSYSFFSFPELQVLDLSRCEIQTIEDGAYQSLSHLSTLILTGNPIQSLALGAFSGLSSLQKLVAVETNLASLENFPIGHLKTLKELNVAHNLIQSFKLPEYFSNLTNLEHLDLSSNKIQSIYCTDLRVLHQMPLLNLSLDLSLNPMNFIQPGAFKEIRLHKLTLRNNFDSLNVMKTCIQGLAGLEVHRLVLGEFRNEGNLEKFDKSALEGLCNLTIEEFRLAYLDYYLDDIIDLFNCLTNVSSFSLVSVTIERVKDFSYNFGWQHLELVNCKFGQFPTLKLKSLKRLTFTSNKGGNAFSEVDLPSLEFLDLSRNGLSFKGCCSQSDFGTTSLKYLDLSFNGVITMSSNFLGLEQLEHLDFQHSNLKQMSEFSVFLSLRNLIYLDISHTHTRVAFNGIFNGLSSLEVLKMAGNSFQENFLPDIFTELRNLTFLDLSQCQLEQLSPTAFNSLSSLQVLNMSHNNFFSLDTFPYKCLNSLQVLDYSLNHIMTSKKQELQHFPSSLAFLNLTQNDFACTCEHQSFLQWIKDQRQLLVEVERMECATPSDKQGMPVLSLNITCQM

B1: human nicotinamide phosphoribosyltransferase (NAMPT), wildtype (enzyme)
chain: MNPAAEAEFNILLATDSYKVTHYKQYPPNTSKVYSYFECREKKTENSKLRKVKYEETVFYGLQYILNKYLKGKVVTKEKIQEAKDVYKEHFQDDVFNEKGWNYILEKYDGHLPIEIKAVPEGFVIPRGNVLFTVENTDPECYWLTNWIETILVQSWYPITVATNSREQKKILAKYLLETSGNLDGLEYKLHDFGYRGVSSQETAGIGASAHLVNFKGTDTVAGLALIKKYYGTKDPVPGYSVPAAEHSTITAWGKDHEKDAFEHIVTQFSSVPVSVVSDSYDIYNACEKIWGEDLRHLIVSRSTQAPLIIRPDSGNPLDTVLKVLEILGKKFPVTENSKGYKLLPPYLRVIQGDGVDINTLQEIVEGMKQKMWSIENIAFGSGGGLLQKLTRDLLNCSFKCSYVVTNGLGINVFKDPVADPNKRSKKGRLSLHRTPAGNFVTLEEGKGDLEEYGQDLLHTVFKNGKVTKSYSFDEIRKNAQLNIELEAAHH
notes: nicotinamide phosphoribosyltransferase (NAMPT), human, UniProt P43490; also called WT; HsNAMPT; source: ClearColi BL21 (DE3), purified (Ni-NTA, PD10; ε-poly-L-lysine resin to remove endotoxin)
Regarding B1, in data set [1], the “stoichiometry N” value was 2. In data set [2], the Kd worked out at 17.8 nM, the koff came out at 0.005 ± 0.001 s⁻¹ and the kon was 280000 M⁻¹ s⁻¹.

B2: NAMPT α-loop triple mutant K(68>73)A (enzyme, human)
chain: MNPAAEAEFNILLATDSYKVTHYKQYPPNTSKVYSYFECREKKTENSKLRKVKYEETVFYGLQYILNAYLAGAVVTKEKIQEAKDVYKEHFQDDVFNEKGWNYILEKYDGHLPIEIKAVPEGFVIPRGNVLFTVENTDPECYWLTNWIETILVQSWYPITVATNSREQKKILAKYLLETSGNLDGLEYKLHDFGYRGVSSQETAGIGASAHLVNFKGTDTVAGLALIKKYYGTKDPVPGYSVPAAEHSTITAWGKDHEKDAFEHIVTQFSSVPVSVVSDSYDIYNACEKIWGEDLRHLIVSRSTQAPLIIRPDSGNPLDTVLKVLEILGKKFPVTENSKGYKLLPPYLRVIQGDGVDINTLQEIVEGMKQKMWSIENIAFGSGGGLLQKLTRDLLNCSFKCSYVVTNGLGINVFKDPVADPNKRSKKGRLSLHRTPAGNFVTLEEGKGDLEEYGQDLLHTVFKNGKVTKSYSFDEIRKNAQLNIELEAAHH
notes: nicotinamide phosphoribosyltransferase (NAMPT), human, UniProt P43490; mutagenised pET15b plasmid; source: ClearColi BL21 (DE3), purified (Ni-NTA, PD10; ε-poly-L-lysine resin to remove endotoxin)
Turning to B2, the “stoichiometry N” value in data set [1] was found to be 2. Further, in data set [2], the Kd came out at 1280 nM, the koff was 0.004 ± 0.002 s⁻¹ and the kon is 3100 M⁻¹ s⁻¹.

B3: NAMPT α-loop double mutant K(68/71)S (enzyme, human)
chain: MNPAAEAEFNILLATDSYKVTHYKQYPPNTSKVYSYFECREKKTENSKLRKVKYEETVFYGLQYILNSYLSGKVVTKEKIQEAKDVYKEHFQDDVFNEKGWNYILEKYDGHLPIEIKAVPEGFVIPRGNVLFTVENTDPECYWLTNWIETILVQSWYPITVATNSREQKKILAKYLLETSGNLDGLEYKLHDFGYRGVSSQETAGIGASAHLVNFKGTDTVAGLALIKKYYGTKDPVPGYSVPAAEHSTITAWGKDHEKDAFEHIVTQFSSVPVSVVSDSYDIYNACEKIWGEDLRHLIVSRSTQAPLIIRPDSGNPLDTVLKVLEILGKKFPVTENSKGYKLLPPYLRVIQGDGVDINTLQEIVEGMKQKMWSIENIAFGSGGGLLQKLTRDLLNCSFKCSYVVTNGLGINVFKDPVADPNKRSKKGRLSLHRTPAGNFVTLEEGKGDLEEYGQDLLHTVFKNGKVTKSYSFDEIRKNAQLNIELEAAHH
notes: nicotinamide phosphoribosyltransferase (NAMPT), human, UniProt P43490; mutagenised pET15b plasmid; K68 and K71 replaced with serine; source: ClearColi BL21 (DE3), purified (Ni-NTA, PD10; ε-poly-L-lysine resin to remove endotoxin)
Regarding B3, in data set [1], the “stoichiometry N” value was determined as 2. For the same molecule, in data set [2], the Kd is 20.8 nM, the koff worked out at 0.01 ± 0.004 s⁻¹ and the kon came to 480000 M⁻¹ s⁻¹.

B4: NAMPT β-loop double mutant K(42/48)A (enzyme, human)
chain: MNPAAEAEFNILLATDSYKVTHYKQYPPNTSKVYSYFECREAKTENSALRKVKYEETVFYGLQYILNKYLKGKVVTKEKIQEAKDVYKEHFQDDVFNEKGWNYILEKYDGHLPIEIKAVPEGFVIPRGNVLFTVENTDPECYWLTNWIETILVQSWYPITVATNSREQKKILAKYLLETSGNLDGLEYKLHDFGYRGVSSQETAGIGASAHLVNFKGTDTVAGLALIKKYYGTKDPVPGYSVPAAEHSTITAWGKDHEKDAFEHIVTQFSSVPVSVVSDSYDIYNACEKIWGEDLRHLIVSRSTQAPLIIRPDSGNPLDTVLKVLEILGKKFPVTENSKGYKLLPPYLRVIQGDGVDINTLQEIVEGMKQKMWSIENIAFGSGGGLLQKLTRDLLNCSFKCSYVVTNGLGINVFKDPVADPNKRSKKGRLSLHRTPAGNFVTLEEGKGDLEEYGQDLLHTVFKNGKVTKSYSFDEIRKNAQLNIELEAAHH
notes: nicotinamide phosphoribosyltransferase (NAMPT), human, UniProt P43490; mutagenised pET15b plasmid; K42 and K48 replaced with alanine; source: ClearColi BL21 (DE3), purified (Ni-NTA, PD10; ε-poly-L-lysine resin to remove endotoxin)
For the molecule B4, the “stoichiometry N” value in data set [1] came to 2. Further, in data set [2], the Kd came out at 37.1 nM, the koff turned out to be 0.029 ± 0.003 s⁻¹ and the kon was 780000 M⁻¹ s⁻¹.

B5: NAMPT β-loop full mutant K/R(42>51)A (enzyme, human)
chain: MNPAAEAEFNILLATDSYKVTHYKQYPPNTSKVYSYFECREAATENSALAAVKYEETVFYGLQYILNKYLKGKVVTKEKIQEAKDVYKEHFQDDVFNEKGWNYILEKYDGHLPIEIKAVPEGFVIPRGNVLFTVENTDPECYWLTNWIETILVQSWYPITVATNSREQKKILAKYLLETSGNLDGLEYKLHDFGYRGVSSQETAGIGASAHLVNFKGTDTVAGLALIKKYYGTKDPVPGYSVPAAEHSTITAWGKDHEKDAFEHIVTQFSSVPVSVVSDSYDIYNACEKIWGEDLRHLIVSRSTQAPLIIRPDSGNPLDTVLKVLEILGKKFPVTENSKGYKLLPPYLRVIQGDGVDINTLQEIVEGMKQKMWSIENIAFGSGGGLLQKLTRDLLNCSFKCSYVVTNGLGINVFKDPVADPNKRSKKGRLSLHRTPAGNFVTLEEGKGDLEEYGQDLLHTVFKNGKVTKSYSFDEIRKNAQLNIELEAAHH
notes: nicotinamide phosphoribosyltransferase (NAMPT), human, UniProt P43490; mutagenised pET15b plasmid; the entire set of positive residues of the β1-β2 K-rich loop (residues 42-51) replaced with alanine; source: ClearColi BL21 (DE3), purified (Ni-NTA, PD10; ε-poly-L-lysine resin to remove endotoxin)
Consider B5, for which the “stoichiometry N” value in data set [1] was found to be 2. For the same molecule, in data set [2], the dissociation constant Kd was determined as 630 nM, the koff turned out to be 0.085 ± 0.023 s⁻¹ and the kon was found to be 130000 M⁻¹ s⁻¹.

B6: NAMPT β-loop deletion mutant Δ(42>51) (enzyme, human)
chain: MNPAAEAEFNILLATDSYKVTHYKQYPPNTSKVYSYFECREVKYEETVFYGLQYILNKYLKGKVVTKEKIQEAKDVYKEHFQDDVFNEKGWNYILEKYDGHLPIEIKAVPEGFVIPRGNVLFTVENTDPECYWLTNWIETILVQSWYPITVATNSREQKKILAKYLLETSGNLDGLEYKLHDFGYRGVSSQETAGIGASAHLVNFKGTDTVAGLALIKKYYGTKDPVPGYSVPAAEHSTITAWGKDHEKDAFEHIVTQFSSVPVSVVSDSYDIYNACEKIWGEDLRHLIVSRSTQAPLIIRPDSGNPLDTVLKVLEILGKKFPVTENSKGYKLLPPYLRVIQGDGVDINTLQEIVEGMKQKMWSIENIAFGSGGGLLQKLTRDLLNCSFKCSYVVTNGLGINVFKDPVADPNKRSKKGRLSLHRTPAGNFVTLEEGKGDLEEYGQDLLHTVFKNGKVTKSYSFDEIRKNAQLNIELEAAHH
notes: nicotinamide phosphoribosyltransferase (NAMPT), human, UniProt P43490; pET15b plasmid changed with the In-Fusion kit; the β1-β2 K-rich loop fully deleted; also called ΔK(42>51); β-loop deleted mutant; source: ClearColi BL21 (DE3), purified (Ni-NTA, PD10; ε-poly-L-lysine resin to remove endotoxin)
On to B6, for which the “stoichiometry N” value in data set [1] was found to be 2. Also, in data set [2], the Kd was 218 nM, the koff amounted to 0.07 ± 0.02 s⁻¹ and the kon came to 320000 M⁻¹ s⁻¹.

A word on the stoichiometry N: it is a count of units in the complex or per binding partner. The term Kd denotes the free concentration of one partner at which half of the binding sites on the other are occupied at equilibrium, for simple one-to-one binding. One may read the koff as the first-order rate constant of dissociation. The term kon denotes a measure of how fast the partners come together.
